# In US8242083B2, “Kinase substrates” (PerkinElmer Health Sciences, Inc., priority 2008, dated 2012):
# Key:
# Format in all cases: biochemical
# ZAP70 = target: T1, ZAP70 (Homo sapiens, UniProt P43403); experiment: TR-FRET kinase assay, ZAP70; conditions: Kinase Concentration 4 nM; 50 nM ULight-labeled substrate, 200 micromolar ATP, 2 hours
# T1 sequence (P43403 1-619): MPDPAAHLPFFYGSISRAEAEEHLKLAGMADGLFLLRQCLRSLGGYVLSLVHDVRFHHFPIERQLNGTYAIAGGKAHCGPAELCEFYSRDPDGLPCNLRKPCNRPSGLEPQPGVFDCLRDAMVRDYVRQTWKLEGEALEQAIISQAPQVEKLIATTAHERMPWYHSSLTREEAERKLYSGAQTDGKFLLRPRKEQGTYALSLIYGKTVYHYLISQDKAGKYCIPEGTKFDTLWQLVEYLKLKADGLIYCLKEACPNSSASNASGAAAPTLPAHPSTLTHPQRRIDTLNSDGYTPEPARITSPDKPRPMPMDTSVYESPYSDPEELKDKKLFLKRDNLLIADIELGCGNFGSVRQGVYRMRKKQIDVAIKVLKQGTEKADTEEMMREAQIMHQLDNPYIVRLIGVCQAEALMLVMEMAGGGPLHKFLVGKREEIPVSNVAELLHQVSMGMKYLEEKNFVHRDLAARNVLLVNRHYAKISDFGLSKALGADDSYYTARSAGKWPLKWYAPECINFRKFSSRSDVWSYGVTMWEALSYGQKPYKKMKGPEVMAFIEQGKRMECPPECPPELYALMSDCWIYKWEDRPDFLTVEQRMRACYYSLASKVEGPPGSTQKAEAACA
# Experimental: (§1) TR-FRET kinase assays are performed under standardized conditions: various individual kinases are incubated with 50 nM of kinase substrate BRB1 labeled with the TR-FRET acceptor dye ULight (PerkinElmer) and 200 micromolar ATP in 10 μL of kinase assay buffer (50 mM HEPES pH7.5, 10 mM MgCl2, 3 mM MnCl2, 1 mM EGTA, 2 mM DTT and 0.01% Tween-20) for 2 hours at room temperature. Reactions are stopped with EDTA, and anti-phospho-tyrosine antibodies (clone PT66) labeled with the TR-FRET europium chelate donor dye are added to a final concentration of 2 nM in a final volume of 20 μL. The TR-FRET signal emitted at 665 nm is read one hour after the addition of antibodies using a TR-FRET plate reader such as the Envision® Multilabel Plate reader (PerkinElmer). The emitted signal at 665 nm is proportional to the extent of peptide phosphorylation, Control reactions indicative of background are performed excluding ATP from the reaction.
# (§2) Assay conditions are identical to those used described for FIG. 1.
# IGF1R = IGF1R (Homo sapiens, UniProt P08069); experiment: TR-FRET kinase assay, IGF1R; conditions: Kinase Concentration 0.25 nM; 50 nM ULight-labeled substrate, 200 micromolar ATP, 2 hours
# Experimental: as §1, §2
# INSR = INSR (Homo sapiens, UniProt P06213); experiment: TR-FRET kinase assay, INSR; conditions: Kinase Concentration 20 nM; 50 nM ULight-labeled substrate, 200 micromolar ATP, 2 hours
# Experimental: as §1, §2
# MER = target: T2, MER (Homo sapiens, UniProt Q12866); experiment: TR-FRET kinase assay, MER; conditions: Kinase Concentration 0.25 nM; 50 nM ULight-labeled substrate, 200 micromolar ATP, 2 hours
# T2 sequence (Q12866 21-999): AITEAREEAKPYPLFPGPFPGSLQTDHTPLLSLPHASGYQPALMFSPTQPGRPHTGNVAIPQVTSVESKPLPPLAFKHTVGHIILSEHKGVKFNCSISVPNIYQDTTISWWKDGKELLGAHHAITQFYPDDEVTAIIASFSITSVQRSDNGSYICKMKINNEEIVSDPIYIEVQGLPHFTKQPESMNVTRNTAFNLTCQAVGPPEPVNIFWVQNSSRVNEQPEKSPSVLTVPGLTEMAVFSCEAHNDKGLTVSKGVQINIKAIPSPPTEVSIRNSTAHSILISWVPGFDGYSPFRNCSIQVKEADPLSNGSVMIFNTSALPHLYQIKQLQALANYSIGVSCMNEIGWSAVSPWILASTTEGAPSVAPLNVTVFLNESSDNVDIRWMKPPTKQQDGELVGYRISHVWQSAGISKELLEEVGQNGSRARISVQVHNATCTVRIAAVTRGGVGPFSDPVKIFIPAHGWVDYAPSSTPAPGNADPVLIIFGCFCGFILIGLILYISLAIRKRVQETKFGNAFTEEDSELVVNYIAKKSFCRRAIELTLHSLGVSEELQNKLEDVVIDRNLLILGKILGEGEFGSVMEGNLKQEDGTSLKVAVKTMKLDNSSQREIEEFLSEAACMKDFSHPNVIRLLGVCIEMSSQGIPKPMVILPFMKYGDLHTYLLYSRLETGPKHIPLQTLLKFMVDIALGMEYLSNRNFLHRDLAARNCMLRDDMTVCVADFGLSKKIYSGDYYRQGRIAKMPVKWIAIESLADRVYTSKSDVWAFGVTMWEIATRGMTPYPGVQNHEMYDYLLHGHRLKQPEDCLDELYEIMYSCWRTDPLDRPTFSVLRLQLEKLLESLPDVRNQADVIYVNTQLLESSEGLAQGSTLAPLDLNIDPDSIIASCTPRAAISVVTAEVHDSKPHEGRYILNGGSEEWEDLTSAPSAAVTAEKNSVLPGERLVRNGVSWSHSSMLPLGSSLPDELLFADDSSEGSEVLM
# Experimental: as §1, §2
# RET = RET (Homo sapiens, UniProt P07949); experiment: TR-FRET kinase assay, RET; conditions: Kinase Concentration 0.5 nM; 50 nM ULight-labeled substrate, 200 micromolar ATP, 2 hours
# Experimental: as §1, §2
# ROR2 = ROR2 (Homo sapiens, UniProt Q01974); experiment: TR-FRET kinase assay, ROR2; conditions: Kinase Concentration 20 nM; 50 nM ULight-labeled substrate, 200 micromolar ATP, 2 hours
# Experimental: as §1, §2
sequence,measurement,setting,value
C AYE AYE AYE K EYA EYA EYA K AYA EYE R (CAYEAYEAYEKEYAEYAEYAKAYAEYER; tyrosine kinase substrate peptide) [BRB1],Signal to Noise ratio with BRB1 Peptide,ZAP70,7.6
same,Signal to Noise ratio with BRB1 Peptide,IGF1R,25.1
same,Signal to Noise ratio with BRB1 Peptide,INSR,4.0
same,Signal to Noise ratio with BRB1 Peptide,MER,12.9
same,Signal to Noise ratio with BRB1 Peptide,RET,20.3
same,Signal to Noise ratio with BRB1 Peptide,ROR2,1.0
